Legend:
[1] = substrate: C[C@]12CC[C@@H]3c4ccc(O)cc4CC[C@H]3[C@@H]1CC[C@@H]2O[C@@H]1O[C@H](C(=O)O)[C@@H](O)[C@H](O)[C@H]1O; assay: (§1) TP_TRANSPORTER: uptake in Xenopus laevis oocytes; type: functional, cell-based, Oocyte
[2] = substrate: [H][C@@]12CC=C3C[C@@H](OS(=O)(=O)O)CC[C@]3(C)[C@@]1([H])CC[C@]1(C)C(=O)CC[C@@]21[H]; assay: as §1; type: functional, cell-based, Oocyte

B1: Solute carrier organic anion transporter family member 1A1 (Mus musculus) (protein)
chain: MEETEKKVATQEGRFFSKMKVFLMSLTCAYLAKSLSGVYMNSMLTQIERQFGIPTSVVGFITGSFEIGNLLLIVFVSYFGRKLHRPIIIGVGCVVMGLGCFLMASPHFLMGRYKYETTISPTSNLSSNSFLCIENRTQTLKPTQDPTECVKEIKSLMWIYVLIGNTMRGIGETPIMPLGISYIEDFAKSENSPLYIGILEMGKIVGPIIGLLLGSFFARVYVDIGSVNTDDLTITPTDTRWVGAWWIGFLVCAGVNILTSIPFFFFPKTLPKKELQDNVDVTKYEKVEKHRERAKKENLGITKDFLPFMKSLCCNPIYMLFSLTSVLQINGFASTFTFLPKYLEQQYGKSTSEAVFLIGVYSLPPVCLGYLISGFIMKKFKITVKKAAYIAFGLSLSEYFIFLCNYLLTCDNFPVAGLTTSYKGVQHPLYGEKNVLADCNTRCSCLTDTWDPVCGDNGLAYMSACLAGCEKSVGTGTNMVFQNCSCIGSSGNSSAVLGLCKKGPECDNKLQYFLIKSVFSSFIFSLAAIPGYMVLLRCVKSEEKSIGVGLHAFFIRLLAGIPAPVYFGALIDRTCLHWGTLKCGQPGACRMYDINRFRHIYLGLPAAVRGSSFLPAVFILILMRKFHFPGDIHSPDTELAEMKLTEKESECTDVCRSPKVENDGELKTKL
With B1 the Km [1] was 8.2 µM and the Km [2] was 8.2 µM.
